We go through one molecule from US20250051463A1, “CD123 ANTIBODY-DRUG CONJUGATES AND METHODS OF USING THE SAME” (ASTRAZENECA AB, priority 2023, published 2025).

In one series the test system is HPAEC. Briefly: CellTiter-Glo cell viability, 3 days. In kind it is cell-based. As to the method:
(§1) The CD123-expressing endothelial cell lines HUVEC and HPAEC and control cell lines RPMI-8226 (high CD123 expressing) and K562 (low expressing or negative for CD123) were cultured and co-incubated with Comparator-1 ADC, NIP228-SG3932 (isotype control for HT12-GL-SG3932) HT12-GL-SG3932, or CD123 mAb (HT12-GL) for 3 days at concentrations ranging from 0.0017 to 520 μg/mL for CD123 mAb, HT12-GL-SG3932, or NIP228-SG3932) or 0.0010 to 320 μg/mL for IMGN-IGN). Cell viability was assessed by CellTiter-Glo Cell Viability Assay and IC50 for viability was calculated (when possible) for each compound for each cell line. Expression of CD123 was assessed by western blot surface expression or by flow cytometry (FIG. 9C-9H).
In general terms: In ATP-based viability assays light output follows the ATP content of the culture.

The subject of a further series is HUVEC. The series is described as follows: CellTiter-Glo cell viability, 3 days. It counts as cell-based. As for the experimental part:
as §1

For the next series, the system named is K562. Briefly: CellTiter-Glo cell viability, 3 days. In kind it is cell-based. As for the experimental part: as §1
The test system of the next series is RPMI-8226. Briefly: CellTiter-Glo cell viability, 3 days. It counts as cell-based. As for the experimental part: as §1
Series [1] concerns subcutaneous EOL-1 tumors. The series is described as follows: EOL-1 subcutaneous xenograft study. In kind it is in vivo, Nude mice. As to conditions: 0.24 mg/kg at a single dose. As to the method: EOL-1 cells that express about 2,000 CD123/IL3Rα per cell were maintained in the RPMI-1640 medium containing 10% heat-inactivated FBS and were cultured in a humidified atmosphere of 5% CO2 and at a temperature of 37° C. On the day of implantation, cells were spun down at 1500 rpm for 5 minutes, counted, and resuspended to a final concentration of 50×10^6 cells/mL in PBS. Female Nude mice were each injected subcutaneously in the right flank with 10×10^6 cells in 200 μL volume. When average tumor volume reached ˜150-250 mm^3 on Day 9, mice were randomized into treatment groups using the Matched Distribution method built into the Study Director software.
Test and control ADC were diluted from a stock solution with vehicle buffer (20 mM histidine, 240 mM sucrose, 0.02% Polysorbate 80, pH 6.0) and were administered as a single intravenous (IV) injection according to body weight.
Tumor volume and body weight were measured twice weekly from Day 6 to Day 60 after EOL-1 implant. Tumors were measured by caliper and the volumes of tumors were calculated using the following formula:
Tumor Volume=[length (mm)×width (mm)^2]/2; where the length and the width are the longest and shortest diameters of the tumor respectively.

B1: pivekimab sunirine (conjugate, chains of the INN, looked up)
VH: QVQLVQSGAEVKKPGASVKVSCKASGYIFTSSIMHWVRQAPGQGLEWIGYIKPYNDGTKYNEKFKGRATLTSDRSTSTAYMELSSLRSEDTAVYYCAREGGNDYYDTMDYWGQGTLVTVSS
VL: EIQMTQSPSSLSASVGDRVTITCRASQDINSYLSWFQQKPGKAPKTLIYRVNRLVDGVPSRFSGSGSGNDYTLTISSLQPEDFATYYCLQYDAFPYTFGQGTKVEIK
modifications: sunirine payload
For the molecule B1, the “Cytotoxicity (Viability IC50) HPAEC” value in the series on HPAEC came to 6.0 µg/mL. In the series with HUVEC, the “Cytotoxicity (Viability IC50) HUVEC” value was determined as 6.9 µg/mL. The “Cytotoxicity (Viability IC50) K562” value with K562 stood at 10.3 µg/mL. Besides, the “Cytotoxicity (Viability IC50) RPMI-8226” value in the series with RPMI-8226 came to 53.9 µg/mL. In addition, the “anti-tumor effect (tumor volume)” value in series [1] was “complete tumor regression”.
